# B1: yeast carboxypeptidase Y (CPD-Y), wild type (SEQ ID NO:32) (Saccharomyces cerevisiae S288C) (protein)
# chain: KIKDPKILGIDPNVTQYTGYLDVEDEDKHFFFWTFESRNDPAKDPVILWLNGGPGCSSLTGLFFELGPSSIGPDLKPIGNPYSWNSNATVIFLDQPVNVGFSYSGSSGVSNTVAAGKDVYNFLELFFDQFPEYVNKGQDFHIAGESYAGHYIPVFASEILSHKDRNFNLTSVLIGNGLTDPLTQYNYYEPMACGEGGEPSVLPSEECSAMEDSLERCLGLIESCYDSQSVWSCVPATIYCNNAQLAPYQRTGRNVYDIRKDCEGGNLCYPTLQDIDDYLNQDYVKEAVGAEVDHYESCNFDINRNFLFAGDWMKPYHTAVTDLLNQDLPILVYAGDKDFICNWLGNKAWTDVLPWKYDEEFASQKVRNWTASITDEVAGEVKSYKHFTYLRVFNGGHMVPFDVPENALSMVNEWIHGGFSL
# notes: purchased Carlbiotech, Copenhagen, Denmark
# How the values were obtained:
# [1] = target: FA-Phe-Val-OH
# [2] = target: FA-Ala-Gln-OH
# [3] = target: FA-Ala-Lys-OH
# [4] = target: FA-Ala-Arg-OH
# [5] = target: FA-Ala-Val-OH
# [6] = target: FA-Ala-Phe-OH
# [7] = target: FA-Ala-Ala-OH
# [8] = target: FA-Ala-Leu-OH
# [9] = target: CBZ-Ser-Leu-OH
# [10] = target: CBZ-Phe-Leu-OH
# [11] = target: CBZ-Glu-Leu-OH
# [12] = target: CBZ-Ala-Leu-OH
# [13] = target: CBZ-Lys-Leu-OH
# [14] = target: CBZ-Pro-Leu-OH
# [15] = target: CBZ-Gly-Leu-OH
# [16] = target: CBZ-His-Leu-OH
# [17] = target: CBZ-Trp-Leu-OH
# [18] = substrate: CC(C)[C@H](NC(=O)[C@H](Cc1ccccc1)NC(=O)C=Cc1ccco1)C(=O)O; assay: purified protein, by the assay type; conditions: other: hydrolysis of FA-Phe-Val-OH
# [19] = substrate: CC(C)C[C@H](NC(=O)[C@H](Cc1ccccc1)NC(=O)OCc1ccccc1)C(=O)O; assay: Hydrolysis of CBZ-X-Leu-OH substrates; type: biochemical, yeast; conditions: other: Table X, hydrolysis at 25° C., 10 mM sodium phosphate pH 6.5
# Method: (§1) Over-expression of selected mutant enzymes was performed according to Nielsen et al. (1990) cited supra. The mutant BamHI-BamHI PRC1 fragments of pYSP32 were inserted into the GAL expression vector pRA21 and introduced into yeast strain K2579LLR. The plasmid pRA21 is derived from p72UG (Nielsen et al. (1990) cited supra) by replacing the 918 bp BglII-SalI fragment with the 638 bp BglII-PvuII fragment of pWI3, thereby deleting the BamHI site downstream of the PRC1 gene. Mutant forms of CPD-Y were purified from culture supernatants by affinity chromatography as described in Example 1. Kinetic parameters were determined by measuring rates of hydrolysis at 25° C. of CBZ-X-Leu-OH substrates spectrophotometrically at 224 nm in 10 mM sodium phosphate buffer pH 6.5. The concentrations of substrates ranged from 0.01 to 0.5 mM. Accurate measurements were not possible with substrate concentrations exceeding 0.5 mM due to the high absorption of the substrate.
# [20] = substrate: CC(C)C[C@H](NC(=O)[C@H](CCC(=O)O)NC(=O)OCc1ccccc1)C(=O)O; assay: Hydrolysis of CBZ-X-Leu-OH substrates; type: biochemical, yeast; conditions: other: Table X and text, hydrolysis at 25° C., 10 mM sodium phosphate pH 6.5
# Method: as §1
# [21] = substrate: CC(C)C[C@H](NC(=O)[C@H](CO)NC(=O)OCc1ccccc1)C(=O)O; assay: Hydrolysis of CBZ-X-Leu-OH substrates; type: biochemical, yeast; conditions: other: Table X, hydrolysis at 25° C., 10 mM sodium phosphate pH 6.5
# Method: as §1
# [22] = substrate: CC(C)C[C@H](NC(=O)[C@H](C)NC(=O)OCc1ccccc1)C(=O)O; assay: Hydrolysis of CBZ-X-Leu-OH substrates; type: biochemical, yeast; conditions: other: Table X, hydrolysis at 25° C., 10 mM sodium phosphate pH 6.5
# Method: as §1
# [23] = substrate: CC(C)C[C@H](NC(=O)[C@H](CCCCN)NC(=O)OCc1ccccc1)C(=O)O; assay: Hydrolysis of CBZ-X-Leu-OH substrates; type: biochemical, yeast; conditions: other: Table X and text, hydrolysis at 25° C., 10 mM sodium phosphate pH 6.5
# Method: as §1
molecule,measurement,setting,value
carboxypeptidase Y (enzyme),kcat/KM of hydrolysis,[1],2.33e+06 M⁻¹ s⁻¹
same,famax of transpeptidation (nucleophile H-Gly-NH2),[2],0.93
same,famax of transpeptidation (nucleophile H-Gly-NH2),[3],0.99
same,famax of transpeptidation (nucleophile H-Val-NH2),[4],1
same,famax of transpeptidation (nucleophile H-Val-NH2),[5],0.22
same,famax of transpeptidation (nucleophile H-Val-NH2),[6],0.06
same,famax of transpeptidation (nucleophile H-Val-NH2),[7],0.94
same,famax of transpeptidation (nucleophile H-Val-NH2),[8],0.16
same,kcat/Km of hydrolysis,[9],200000 M⁻¹ s⁻¹
same,kcat/Km of hydrolysis,[10],6.33e+06 M⁻¹ s⁻¹
same,kcat/Km of hydrolysis,[11],7330 M⁻¹ s⁻¹
same,kcat/Km of hydrolysis,[12],600000 M⁻¹ s⁻¹
same,kcat/Km of hydrolysis,[13],400 M⁻¹ s⁻¹
same,estimated CPD-Y activity relative to wild type transformants (fold of wild type),[14],1
same,estimated CPD-Y activity relative to wild type transformants (fold of wild type),[15],1
same,estimated CPD-Y activity relative to wild type transformants (fold of wild type),[16],1
same,estimated CPD-Y activity relative to wild type transformants (fold of wild type),[17],1
B1,Km,[18],47 µM
same,Km,[19],36 µM
same,kcat,[19],13600 mM/min/mM
same,kcat/Km,[19],"380,000 min^-1 mM^-1"
same,kcat/Km,[20],7330 M⁻¹ s⁻¹
same,Km,[21],70 µM
same,kcat,[21],800 mM/min/mM
same,kcat/Km,[21],"12,000 min^-1 mM^-1"
same,Km,[22],700 µM
same,kcat,[22],25000 mM/min/mM
same,kcat/Km,[22],"36,000 min^-1 mM^-1"
same,kcat/Km,[23],400 M⁻¹ s⁻¹
